Results: patent US20220144922A1 (Adimab, published 2022)
Where a chain is given by its changes, count along the chain named.

B1: ADI-15576 (antibody, V domains shown)
VH: QVQLVQSGAAVKKPGESLKISCKGFGYSFTKYWIGWVRQVPGKGLEWIGIISPTDSNTRYSPSFRGQVTMSADKSISAAYLQWSSLKASDTAMYYCARHSSPYSSGWYGDTYFFDSWGQGTLVTVSS
VL: QPVLTQPPSASGTPGQRVTISCSGSNSNIGTNTVNWYQQLPGTAPKVLIHNNNERPSGVPDRFSGSKSGTSASLAISGLQSEDEADYYCAAWDDSLRGYVFGTGTKVTVL
notes: IgG; also called Antibody Number 146
B2: ADI-15632 (antibody, V domains shown)
VH: QVQLVQSGGGLVQPGRSLRLSCTASGFSFSDYGVTWVRQAPGKGLEWIGFVRTKGYGGTTEYAASVRGRFTISRDDSKSVAYLQLNSLKVEDTAVYYCSGASRGFWSGPTYYYFGMDVWGHGTTVTVSS
VL: EIVLTQSPLSLAVTPGEPASISCRSSQSLLHGNGYNYLDWYLQKPGQSPQLLIFWGSYRASGAPDRFSASGSGSEFTLKIRRVEAEDVGVYYCMQPLQTTFGQGTKVDIK
notes: IgG; also called Antibody Number 197
B3: ADI-15654 (antibody, V domains shown)
VH: QVQLVQSGAEVKRPGSSVKVSCKASGGTSSSYIISWVRQAPGQGLEWMGGIIPIPISGAPTYAQKFQGRANYAQKFEGRLTITADRLTSTAYMELSSLTSEDTAVYYCVRDERNGGYWGQGTLVTVSS
VL: QSALTQPASVSGSPGQSITISCTGTSNDVGAYNHVSWYQQHPGKAPKLMIYDVTNRPSGVSNRFSGSKSGNTASLTIFGLQTDDEADYYCSSYTISSTLVFGGGTQLTVL
notes: IgG; also called Antibody Number 218
B4: ADI-15617 (antibody, V domains shown)
VH: EVQLVESGGGLVQPGGSLRISCAASGFSISSHAVSWVRQAPGKGLEWVSVISGSGGDTHSVVQGRGSGTYYADSVKGRFTISRDNVRNTVYLQMNSLRVEDTAVYYCAKDDPTLFWSGSGYYGMDVWGQGTTVTVSS
VL: DIRVTQSPSSLSASVGDRVTITCQASQGISDSLNWYQQKPGKAPKLLIYGASKLEPGVSSRFSGRGSGRDFTFTISSLQPEDIGTYYCQQYDNLPLTFGPGTKLEIK
notes: IgG; also called Antibody Number 182
B5: ADI-15578 (antibody, V domains shown)
VH: QVQLVQSGGGLVQPGGSLRLSCVGSGFTFSTYSMNWVRQAPGKGLEWVSHISSSSVTMYYADFVKGRFTISRDNAKNSLYLQMTSLRAEDTAVYYCARDAGPVWSGYYDYGMDVWGQGTTVTVSS
VL: ETTLTQSPATLSLSPGERATLSCRASQSVSSLLAWYQQKPGQAPRLLIFDASKRATGIPARFSGSGSGTDFTLTISSLEPEDFAVYYCQQRYNWPPLTFGGGTKVEIK
notes: IgG
B6: ADI-15573 (antibody, V domains shown)
VH: QVQLVQSGAEVKKPGASVKISCKTSGYTFTSSVISWVRQAPGQGLEWVGWITGHRSSTNYAQRLQGRVTMTTDTSTSTAYMELRSLRSDDTAVYYCARADGGSGSYYSAWGQGTLVTVSS
VL: SYELTQPPSASVAPGKTARISCGGNNIGTKSVHWYQQKPGQAPVLVIYHDSHRPSGIPERFSGSNSGNTATLTISRVEAGDEADYYCQLWDSSSDSHVFGTGTKLTVL
notes: IgG; also called Antibody Number 143
B7: ADI-15610 (antibody, V domains shown)
VH: EVQLLESGAEVKKPGSSVKVSCKASGGTFSSYAITWVRQAPGQGLEWMGGIIPILGTTTYAQRFQGRVTITADKSTTTAYMELSRLRSEDTAVYYCAKTVSQYPNTYNYGMDVWGQGTTVTVSS
VL: EIVMTQSPSSLSASVGDRVTITCRASQSVSIYLNWYQQKPGKTPELLIYGASRLQSGVPSRFSGSGSGTDFTLTISSLQPEDFATYYCLQTYSTPLTFGQGTKVEIK
notes: IgG; also called Antibody Number 175
B8: ADI-15663 (antibody, V domains shown)
VH: QVQLVQSGGGLVKPGGSLRLSCAASGFTFSSYTMNWVRQAPGKGLEWVSSITGGSSFTNYADSLEGRFTISRDNAKSSLFLQMNSLRVEDTAVYYCARDQPGTIFGVVQDYWGQGTLVTVSS
VL: QSVLTQPPSVSGAPGQRVTISCTGGSSNIGAGYDVHWYQQLPGTAPKLLIYGNSNRPSGVPDRFSGSKSGTSASLAITGLQAEDEADYYCQSYDSRLSVVFGGGTKVTVL
notes: IgG
B9: ADI-15644 (antibody, V domains shown)
VH: QVQLVQSGAEVKKPGSSVKVSCRTSGGTFSSFSISWVRQAPGQGLEWMGGIIPIFGTANYAKKFQGRVTITADESTDTAYMELRSLRSEDTAVYYCARDSPKISATEYYFDYWGQGTLVTVSS
VL: DIQVTQSPSTLSASVGDRVTITCRASQSFTSWLAWYQQKPGKAPKLLIYKASTLDSGVPSRFSGSGSGTEFTLTINGLQPDDFATYYCQHYDSYSGTFGQGTRLEIK
notes: IgG
B10: ADI-15666 (antibody, V domains shown)
VH: QVQLQQWGAGLLKPSETLSLTCGVSDGSFSAYYWNWIRQSPGKGLEWIGETNPSENTNYSPSLKNRVTISADRSANQFSLRLRSVTAADTGVYYCARGRGYYGSTTDYRGLHWFDPWGQGTLVTVSS
VL: ETTLTQSPVTLSVSPGERATLSCRASQSVSFNLAWYQQKPGQAPRLLIYGASTRVTNLPLRFSGSGSGTEFTLTISSLQSEDFAVYYCQQYNNWPRTFGQGTKLEIK
notes: IgG; also called Antibody Number 230
B11: ADI-15612 (antibody, V domains shown)
VH: EVQLLESGGDLVQPGGSLRLSCAASGFPFSSHSMNWVRQAPGKGLEWISYISGGSDTIQYADSVKGRFTISRDNVKNSLYLQMNSLRAEDTAVYYCARDQYIWNYVEPLDYWGQGTLVTVSS
VL: DIQMTQSPSSLSASVGDRVTITCRASQDISYYLGWYQQKAGKAPKLLIYAVSNLQTGVPSRFSGSGSGTDFTLTISSLQPEDFATYYCLQDHTCPWTFGQGTKVEIK
notes: IgG
B12: ADI-15628 (antibody, V domains shown)
VH: QVQLVQSGGGVVQPGRSLRLSCAASGFTFSDFSMHWVRQAPGKGLEWVALISNDGSNKYYSDSLKGSFIISRDNSKNTLYLQLNSLGAEDTALYYCARDAVPHYDYVWGNFDYWGPGTLVTVSS
VL: QPVLTQPASVSASPGQSITISCTGTSSDVGGYNYVSWYQQHPGKAPKLIVYEVSNRPSGVSNRFSGSKSGNTASLTISGLQADDEADYYCSSYTSFTPVVFGGGTKVTVL
notes: IgG
B13: ADI-15652 (antibody, V domains shown)
VH: B12 VH with Q1E, V5L, Q6E, P116Q
VL: B12 VL with P2S, V50I, V107L
notes: IgG
B14: ADI-15653 (antibody, V domains shown)
VH: QVQLVQSGAEVKKPGSSVKVSCKSSGGTFSNYIISWVRQAPGQGLEWMGGIVPLSGTTDYAQKFQGRVTITADKSTTTAYMELRTLRPEDTAVYYCARGSGGSNAYFDPWGQGTLVTVSS
VL: QSVVTQPPSVSVAPGKTAKITCGGNNIGSKSVYWYQQKPGQAPVLVMYYDTYRPSGIPERFSGSNSGNSATLTISRVDAGDEADYYCQVWDSRSDHPYVFGSGTKLTVL
notes: IgG
B15: ADI-15005 (antibody, V domains shown)
VH: QVQLVESGPALVKPTQTLTLTCSFSGFSLTTRRMCVSWIRQTPGKALEWLARIDWDDDKDYSTSLKTRLTISKDTSKNQVVLTMTNMDPVDTATYYCARTHIYDSSGYYLYYFDYWGQGTLVTVSS
VL: DIVLTQSPSSLSASIGDRVTITCRASQTIASYLNWYQQKPGKAPELLIYAATNLQSGVPSRFSGSGSGTDFTLTISSLRPEDFASYYCQQSYSSPWTFGQGTKVDIK
notes: IgG; also called Antibody Number 124
B16: ADI-15603 (antibody, V domains shown)
VH: QVQLVQSGGGLVQPGGSLRLSCAASGFTFGRHAMTWVRQAPGKGLEWVAGITATGDPTYYPDSVKGRFAVSRDNSRNTLYLQMDSLRVEDTALYYCARSWDDYGDLDWYFALWGRGTMVTVSS
VL: EIVMTQSPAILSVSPGERATLSCRASQSVSSSLAWYQQKPGQAPRLLIYGASTRATGIPPRFSGSGSGTQFTLTISSLQSEDVAVYYCQQYSDWPPLTFGGGTKVEIK
notes: IgG
B17: ADI-15606 (antibody, V domains shown)
VH: B16 VH with Q1E, V5L, Q6E, G30R, H32Y, G50A, P57T, V88A, R98K, M118L
VL: B16 VL with E1D, V83F
notes: IgG
B18: ADI-15604 (antibody, V domains shown)
VH: EVQLLESGGGLVKPGGSLRLSCGASGFKFSDYYMSWIRQAPGKGLEWVSHISSSNSYINYADSVKGRFTISRDNARNSLSLQMNSLRAEDTAVYYCARFPLYCSRSSCSHYVDYWGQGTLVTVSS
VL: B8 VL with G25S, S26G, G52D, S54N, A82V, S95R, R96S
notes: IgG; also called Antibody Number 170

Target: T1, postfusion RSV F ectodomain (F ΔFP), subtype A (respiratory syncytial virus subtype A, UniProt P03420 26-109; P03420 147-524)
T1 construct: extracellular domain; also called Postfusion subtype A
Assay: BLI, IgG on sensor
Method: (§1) IgG binding to DS-Cav1 and FA FP was determined by BLI measurements using a FortéBio Octet HTX instrument (Pall Life Sciences). […] Data was analyzed using the ForteBio Data Analysis Software 7. The data was fit to a 1:1 binding model to calculate an association and dissociation rate, and KD was calculated using the ratio kd/kₐ.

| Binder | Kd [nM] | binding result |
| --- | --- | --- |
| B1 | 0.237 | – |
| B2 | 2.25 | – |
| B3 | – | no binding (tested: BLI response <0.05 nm) |
| B4 | – | no binding (tested: BLI response <0.05 nm) |
| B5 | 1.27 | – |
| B6 | 0.198 | – |
| B7 | 0.417 | – |
| B8 | 2.32 | – |
| B9 | 0.301 | – |
| B10 | 0.499 | – |
| B11 | 0.416 | – |
| B12 | 2.47 | – |
| B13 | 4.98 | – |
| B14 | 0.312 | – |
| B15 | 0.237 | – |

Target: T2, postfusion RSV F ectodomain, subtype B (respiratory syncytial virus subtype B)
T2 construct: extracellular domain; also called Postfusion subtype B
Assay: BLI, IgG on sensor
Method: as §1

| Binder | Kd [nM] |
| --- | --- |
| B16 | 11.9 |
| B17 | 5.89 |
| B1 | 0.179 |
| B5 | 1.54 |
| B6 | 0.199 |
| B18 | 1.77 |
| B9 | 0.194 |
| B10 | 0.546 |
| B11 | 0.353 |
| B14 | 0.39 |
| B15 | 0.253 |

Target: T3, prefusion-stabilized RSV F ectodomain (DS-Cav1), subtype B (respiratory syncytial virus subtype B)
T3 construct: extracellular domain; also called Prefusion subtype B
Assay: BLI, IgG on sensor
Method: as §1

| Binder | Kd [nM] |
| --- | --- |
| B16 | 6.97 |
| B17 | 5.75 |
| B2 | 29.4 |
| B3 | 4.47 |
| B4 | 0.71 |
| B8 | 0.287 |
| B18 | 0.46 |
| B11 | 0.157 |
| B12 | 0.659 |
| B13 | 0.377 |
| B15 | 1.4 |

Target: RSV F protein of subtype A strain A2, on virus (respiratory syncytial virus subtype A …, UniProt P03420 26-574)
Assay: cell-based or functional assay

| Binder | Neut IC50 (ug/ml) subtype A [µg/mL] |
| --- | --- |
| B16 | 0.795 |
| B17 | > 10 |
| B1 | 6.08 |
| B2 | 1.42 |
| B3 | 3.76 |
| B4 | 0.022 |
| B6 | 6.25 |
| B7 | 0.727 |
| B8 | 0.003 |
| B18 | 0.081 |
| B9 | > 10 |
| B10 | 1.41 |
| B11 | 0.053 |
| B12 | 0.014 |
| B13 | 0.012 |
| B14 | > 10 |
| B15 | 2.16 |

Target: RSV F protein of subtype B strain 18537, on virus (respiratory syncytial virus subtype B …, UniProt P13843 26-574)
Assay: cell-based or functional assay

| Binder | Neut IC50 (ug/ml) subtype B [µg/mL] |
| --- | --- |
| B16 | 0.273 |
| B17 | 0.802 |
| B1 | 9.86 |
| B2 | 5.72 |
| B3 | 3.27 |
| B4 | 0.038 |
| B6 | 1.67 |
| B7 | > 10 |
| B8 | 0.019 |
| B18 | 0.082 |
| B9 | > 10 |
| B10 | > 10 |
| B11 | 0.164 |
| B12 | 0.034 |
| B13 | 0.036 |
| B14 | > 10 |
| B15 | 2.53 |
